In article PMC4227725 (Journal of the American Chemical Society, 2014):

What was measured:
[1] = tested on: HeLa cells; details: Tat polymer 2.5 μM, chymotrypsin 1 μM, up to 14 h
[2] = tested on: HeLa cells; details: 2.5 μM, 30 min, 37 °C, heparin washes, phenol red-free medium

Row | Substance | cell entry after incubation with chymotrypsin, time course (in words) [1] | fluorescence in live cells, Z-stack 1 μm slices (in words) [2]
1 | YGRKKRRQRRR [Tat polymer] | retains the ability to enter cells | 
2 | GSGSG [GSGSG polymer] |  | no fluorescence was seen
